Target: CD80-FC (UniProt P33681)
Assay: ELISA, CD80-FC coated 4 µg/ml, biotin-PDL1-FC titrated

Sequence of CD80-FC (P33681 35-242 limits assumed): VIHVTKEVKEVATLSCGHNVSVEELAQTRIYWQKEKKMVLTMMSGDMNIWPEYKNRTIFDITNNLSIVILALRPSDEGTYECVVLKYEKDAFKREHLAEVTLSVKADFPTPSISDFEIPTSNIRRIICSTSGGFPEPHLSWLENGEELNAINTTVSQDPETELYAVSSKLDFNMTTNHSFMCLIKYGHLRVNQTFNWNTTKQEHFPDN
Sequence of Biotin QP004.3 (biotin-PDL1-FC) (Q9NZQ7 19-238 limits assumed): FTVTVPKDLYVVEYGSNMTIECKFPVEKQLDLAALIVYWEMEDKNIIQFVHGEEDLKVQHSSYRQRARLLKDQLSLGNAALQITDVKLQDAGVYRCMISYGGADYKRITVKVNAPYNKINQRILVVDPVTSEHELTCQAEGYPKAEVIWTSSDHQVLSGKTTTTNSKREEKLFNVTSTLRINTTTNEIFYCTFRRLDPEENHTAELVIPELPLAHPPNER

- ELISA reading at 0 µg/ml Biotin-QP004.3 (blank): 0.0484
- ELISA reading at 0.00064 µg/ml Biotin-QP004.3: 0.048
- ELISA reading at 0.0032 µg/ml Biotin-QP004.3: 0.0468
- ELISA reading at 0.016 µg/ml Biotin-QP004.3: 0.0668
- ELISA reading at 0.08 µg/ml Biotin-QP004.3: 0.179
- ELISA reading at 0.4 µg/ml Biotin-QP004.3: 0.591
- ELISA reading at 2 µg/ml Biotin-QP004.3: 1.87
- ELISA reading at 10 µg/ml Biotin-QP004.3: 3.19
Substance: Biotin QP004.3 (biotin-PDL1-FC) (from UniProt Q9NZQ7 19-238) (Fc fusion)
